The assay has as its target T1, MukB^K1114E (Escherichia coli, UniProt P22523 1-1486, K1114E).
T1 construct: E. coli MukB with K1114E; Mutant of the whole MukB-His as far as the text tells; source: E. coli FL01 (mukB 3xFLAG C3013I), purified (TALON, HiTrap Heparin, Superdex 200); not shown: His tag, C-terminal, kept
T1 sequence (looked up): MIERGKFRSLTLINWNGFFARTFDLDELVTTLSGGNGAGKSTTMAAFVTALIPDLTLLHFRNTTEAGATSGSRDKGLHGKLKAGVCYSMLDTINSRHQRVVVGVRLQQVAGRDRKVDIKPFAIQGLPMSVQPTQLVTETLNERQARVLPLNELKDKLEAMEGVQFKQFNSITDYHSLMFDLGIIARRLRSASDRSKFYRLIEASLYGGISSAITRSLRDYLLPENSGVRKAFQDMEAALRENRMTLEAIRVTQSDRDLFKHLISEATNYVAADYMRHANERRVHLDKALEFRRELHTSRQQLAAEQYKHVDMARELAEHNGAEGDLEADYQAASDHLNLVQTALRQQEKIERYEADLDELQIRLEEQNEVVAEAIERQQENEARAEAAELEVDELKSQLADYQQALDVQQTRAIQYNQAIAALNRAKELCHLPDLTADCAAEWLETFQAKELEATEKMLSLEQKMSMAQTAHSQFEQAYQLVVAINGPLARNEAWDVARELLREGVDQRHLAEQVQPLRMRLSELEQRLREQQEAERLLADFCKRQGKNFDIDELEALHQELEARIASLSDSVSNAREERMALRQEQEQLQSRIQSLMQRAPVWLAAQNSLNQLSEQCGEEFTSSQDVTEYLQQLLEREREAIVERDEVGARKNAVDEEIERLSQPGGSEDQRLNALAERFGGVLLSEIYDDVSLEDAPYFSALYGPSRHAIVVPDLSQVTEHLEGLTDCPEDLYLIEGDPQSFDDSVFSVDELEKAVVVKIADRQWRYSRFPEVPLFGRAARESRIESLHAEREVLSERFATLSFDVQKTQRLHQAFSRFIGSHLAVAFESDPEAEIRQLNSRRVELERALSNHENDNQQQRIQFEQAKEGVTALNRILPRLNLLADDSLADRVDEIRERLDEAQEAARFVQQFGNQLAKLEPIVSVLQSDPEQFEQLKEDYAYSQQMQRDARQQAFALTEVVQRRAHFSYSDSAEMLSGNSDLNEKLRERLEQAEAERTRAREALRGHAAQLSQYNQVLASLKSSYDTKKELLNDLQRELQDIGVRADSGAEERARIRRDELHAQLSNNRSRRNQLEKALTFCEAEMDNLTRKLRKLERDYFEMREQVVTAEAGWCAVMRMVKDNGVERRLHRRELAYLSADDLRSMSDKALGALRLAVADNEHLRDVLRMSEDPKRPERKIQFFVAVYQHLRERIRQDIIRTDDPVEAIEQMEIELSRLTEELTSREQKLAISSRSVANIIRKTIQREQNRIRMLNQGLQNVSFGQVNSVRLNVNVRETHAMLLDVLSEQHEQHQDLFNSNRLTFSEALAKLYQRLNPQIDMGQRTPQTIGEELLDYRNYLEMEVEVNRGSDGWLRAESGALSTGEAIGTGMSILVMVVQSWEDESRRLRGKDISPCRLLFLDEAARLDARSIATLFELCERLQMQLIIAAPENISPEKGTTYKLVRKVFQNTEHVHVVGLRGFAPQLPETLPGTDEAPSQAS
Kind of assay: native gel or EMSA; BN-PAGE; MukB or MukB^HN (0-4.5 μM) with MukF (1.5 μM), MukE (3 μM) and AcpP as indicated or none; 1 mM DTT, 1 mM MgCl2, 30 min at 22 °C; 3-12% native Bis-Tris gels; AMPPNP in some samples. The conditions noted are these: both partners purified.

B1: MukF (His-MukF) (natural protein, Escherichia coli, UniProt P60293 1-440, looked up)
chain: MSEFSQTVPELVAWARKNDFSISLPVDRLSFLLAVATLNGERLDGEMSEGELVDAFRHVSDAFEQTSETIGVRANNAINDMVRQRLLNRFTSEQAEGNAIYRLTPLGIGITDYYIRQREFSTLRLSMQLSIVAGELKRAADAAEEGGDEFHWHRNVYAPLKYSVAEIFDSIDLTQRLMDEQQQQVKDDIAQLLNKDWRAAISSCELLLSETSGTLRELQDTLEAAGDKLQANLLRIQDATMTHDDLHFVDRLVFDLQSKLDRIISWGQQSIDLWIGYDRHVHKFIRTAIDMDKNRVFAQRLRQSVQTYFDEPWALTYANADRLLDMRDEEMALRDEEVTGELPEDLEYEEFNEIREQLAAIIEEQLAVYKTRQVPLDLGLVVREYLSQYPRARHFDVARIVIDQAVRLGVAQADFTGLPAKWQPINDYGAKVQAHVIDKY
notes: MukF, the kleisin of Escherichia coli MukBEF; The end of the tag is read from the printed name 'His-MukF'; also called kleisin MukF; source: E. coli C3013I (NEB), pET vector, purified (TALON, HiTrap DEAE FF, Superdex 200)
As to B1, the binding result is “binds”.

B2: MukE (MukE-His) (natural protein, Escherichia coli, UniProt P22524 1-234, looked up)
chain: MSSTNIEQVMPVKLAQALANPLFPALDSALRSGRHIGLDELDNHAFLMDFQEYLEEFYARYNVELIRAPEGFFYLRPRSTTLIPRSVLSELDMMVGKILCYLYLSPERLANEGIFTQQELYDELLTLADEAKLLKLVNNRSTGSDVDRQKLQEKVRSSLNRLRRLGMVWFMGHDSSKFRITESVFRFGADVRAGDDPREAQRRLIRDGEAMPIENHLQLNDETEENQPDSGEEE
notes: MukE, the KITE protein of Escherichia coli MukBEF; The end of the tag is read from the printed name 'MukE-His'; also called KITE protein MukE; source: E. coli C3013I (NEB), pET vector, purified (TALON, HiTrap DEAE FF, Superdex 200)
For the molecule B2, the binding result is on record as “binds”.

(Values after paper PMC8602292, “Acyl carrier protein promotes MukBEF action in Escherichia coli chromosome organization-segregation” (Nature Communications, 2021).)
